Measurements as given in PMC3502708.

Columns and labels:
[1] = target: T1, MORF PHD1/2 fingers (aa 211-329) (human), Q8WYB5; assay: other fluorescence titration
T1 chain: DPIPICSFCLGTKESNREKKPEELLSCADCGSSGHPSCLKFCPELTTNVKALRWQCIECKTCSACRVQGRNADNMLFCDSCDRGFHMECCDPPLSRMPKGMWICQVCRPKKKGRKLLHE

[2] = target: MOZ PHD1/2 fingers (aa 207-318) (human), Q92794; assay: other fluorescence titration
MOZ PHD1/2 fingers (aa 207-318) (human), Q92794, sequence (Q92794 207-318): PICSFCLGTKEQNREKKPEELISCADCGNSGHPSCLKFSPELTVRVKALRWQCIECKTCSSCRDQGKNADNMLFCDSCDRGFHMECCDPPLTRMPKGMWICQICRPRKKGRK

Kd [1]: 4.3 µM | Kd [2]: 3.9 µM
Binder: ARTKQTARKSTG (modifications not checked) [unmodified histone H3 peptide (length not stated for the experiment)]
